Test results: US20250073311A1, “DOSAGE REGIME” (ZEALAND PHARMA A/S, priority 2021, published 2025)
Numbered stars: 1 amine (or outer) side, 2 acyl side, 3 side chain; on linkers, the order of the positions; unused ones are H or OH. Square brackets hold non-standard residues; d marks the D form. Side chains are listed from the residue outwards. * marks the point of attachment. C20 diacid = O=C(O)CCCCCCCCCCCCCCCCCCC(=O)*; C18 diacid = O=C(O)CCCCCCCCCCCCCCCCC(=O)*; γGlu = O=C(O)[C@H](CCC(=O)[*:2])N[*:1]; KEK = Lys-Glu-Lys peptide sequence; AEEA = NCCOCCOCC(=O)O; Aib = CC(C)(N)C(=O)O

B1: Compound 59 (peptide)
peptide: H-H[Aib]EGSFTSELATILDK([AEEA-KEK-γGlu-C20 diacid])KAARDFIAWLIEHKITD-OH
B2: Compound 47 (peptide)
peptide: H-H[Aib]EGTFSSELATILDK([AEEA-KEK-γGlu-C18 diacid])QAARDFIAWLIQHKITD-OH
B3: Compound 3 (peptide)
peptide: H-H[Aib]EGTFTSELATILDK([γGlu-C18 diacid])EAARDFIAWLIEHKITD-OH
SMILES: CC[C@H](C)[C@H](NC(=O)[C@H](Cc1ccccc1)NC(=O)[C@H](CC(=O)O)NC(=O)[C@H](CCCNC(=N)N)NC(=O)[C@H](C)NC(=O)[C@H](C)NC(=O)[C@H](CCC(=O)O)NC(=O)[C@H](CCCCNC(=O)CC[C@H](NC(=O)CCCCCCCCCCCCCCCCC(=O)O)C(=O)O)NC(=O)[C@H](CC(=O)O)NC(=O)[C@H](CC(C)C)NC(=O)[C@@H](NC(=O)[C@@H](NC(=O)[C@H](C)NC(=O)[C@H](CC(C)C)NC(=O)[C@H](CCC(=O)O)NC(=O)[C@H](CO)NC(=O)[C@@H](NC(=O)[C@H](Cc1ccccc1)NC(=O)[C@@H](NC(=O)CNC(=O)[C@H](CCC(=O)O)NC(=O)C(C)(C)NC(=O)[C@@H](N)Cc1c[nH]cn1)[C@@H](C)O)[C@@H](C)O)[C@@H](C)O)[C@@H](C)CC)C(=O)N[C@@H](C)C(=O)N[C@@H](Cc1c[nH]c2ccccc12)C(=O)N[C@@H](CC(C)C)C(=O)N[C@H](C(=O)N[C@@H](CCC(=O)O)C(=O)N[C@@H](Cc1c[nH]cn1)C(=O)N[C@@H](CCCCN)C(=O)N[C@H](C(=O)N[C@H](C(=O)N[C@@H](CC(=O)O)C(=O)O)[C@@H](C)O)[C@@H](C)CC)[C@@H](C)CC
B4: Compound 55 (peptide)
peptide: H-H[Aib]EGSFTSEK([AEEA-AEEA-KEK-γGlu-C20 diacid])ATILDEQAARDFIAWLIEHKITD-OH
B5: Compound 49 (peptide)
peptide: H-H[Aib]EGTFSSELATILDK([AEEA-KEK-γGlu-C18 diacid])QAARDFIAWLIEHKITD-OH
B6: Compound 2 (peptide)
peptide: H-H[Aib]EGSFTSELATILDK([γGlu-C18 diacid])EAARDFIAWLIEHKITD-OH
SMILES: CC[C@H](C)[C@H](NC(=O)[C@H](Cc1ccccc1)NC(=O)[C@H](CC(=O)O)NC(=O)[C@H](CCCNC(=N)N)NC(=O)[C@H](C)NC(=O)[C@H](C)NC(=O)[C@H](CCC(=O)O)NC(=O)[C@H](CCCCNC(=O)CC[C@H](NC(=O)CCCCCCCCCCCCCCCCC(=O)O)C(=O)O)NC(=O)[C@H](CC(=O)O)NC(=O)[C@H](CC(C)C)NC(=O)[C@@H](NC(=O)[C@@H](NC(=O)[C@H](C)NC(=O)[C@H](CC(C)C)NC(=O)[C@H](CCC(=O)O)NC(=O)[C@H](CO)NC(=O)[C@@H](NC(=O)[C@H](Cc1ccccc1)NC(=O)[C@H](CO)NC(=O)CNC(=O)[C@H](CCC(=O)O)NC(=O)C(C)(C)NC(=O)[C@@H](N)Cc1c[nH]cn1)[C@@H](C)O)[C@@H](C)O)[C@@H](C)CC)C(=O)N[C@@H](C)C(=O)N[C@@H](Cc1c[nH]c2ccccc12)C(=O)N[C@@H](CC(C)C)C(=O)N[C@H](C(=O)N[C@@H](CCC(=O)O)C(=O)N[C@@H](Cc1c[nH]cn1)C(=O)N[C@@H](CCCCN)C(=O)N[C@H](C(=O)N[C@H](C(=O)N[C@@H](CC(=O)O)C(=O)O)[C@@H](C)O)[C@@H](C)CC)[C@@H](C)CC
B7: Compound 63 (peptide)
peptide: H-H[Aib]EGSFTSELATILDAK([AEEA-AEEA-KEK-γGlu-C20 diacid])AARDFIAWLIEHKITD-OH
B8: Compound 53 (peptide)
peptide: H-H[Aib]EGSFTSEK([AEEA-KEK-γGlu-C20 diacid])ATILDEQAARDFIAWLIEHKITD-OH
B9: Compound 65 (peptide)
peptide: H-H[Aib]EGTFTSELATILDEQAAK([AEEA-KEK-γGlu-C20 diacid])DFIAWLIEHKITD-OH
B10: Compound 58 (peptide)
peptide: H-H[Aib]EGSFTSELATILDK([AEEA-KEK-γGlu-C20 diacid])QAARDFIAWLIAHKITD-OH
B11: Compound 57 (peptide)
peptide: H-H[Aib]EGSFTSELATILDK([AEEA-KEK-γGlu-C20 diacid])QAARDFIAWLIEHKITD-OH
B12: Compound 48 (peptide)
peptide: H-H[Aib]EGTFSSELATILDK([AEEA-KEK-γGlu-C20 diacid])QAARDFIAWLIQHKITD-OH
B13: Compound 51 (peptide)
peptide: H-H[Aib]EGTFTSELATILDK([KEK-γGlu-C20 diacid])QAARDFIAWLIQHKITD-OH
B14: Compound 60 (peptide)
peptide: H-H[Aib]EGSFTSELATILDK([AEEA-AEEA-KEK-γGlu-C20 diacid])QAARDFIAWLIEHKITD-OH
B15: Compound 54 (peptide)
peptide: H-H[Aib]EGTFTSEK([AEEA-KEK-γGlu-C20 diacid])ATILDEQAARDFIAWLIEHKITD-OH
B16: Compound 50 (peptide)
peptide: H-H[Aib]EGTFSSELATILDK([AEEA-KEK-γGlu-C20 diacid])QAARDFIAWLIEHKITD-OH
B17: Compound 64 (peptide)
peptide: H-H[Aib]EGSFTSELATILDEQAAK([AEEA-KEK-γGlu-C20 diacid])DFIAWLIEHKITD-OH
B18: Compound 62 (peptide)
peptide: H-H[Aib]EGSFTSELATILDAK([AEEA-KEK-γGlu-C20 diacid])AARDFIAWLIEHKITD-OH
B19: Compound 52 (peptide)
peptide: H-H[Aib]EGTFTSELATILDK([AEEA-KEK-γGlu-C20 diacid])QAARDFIAWLIQHKITD-OH
B20: Compound 1 (peptide)
peptide: H-H[Aib]EGTFSSELATILDK([γGlu-C18 diacid])EAARDFIAWLIEHKITD-OH
SMILES: CC[C@H](C)[C@H](NC(=O)[C@H](Cc1ccccc1)NC(=O)[C@H](CC(=O)O)NC(=O)[C@H](CCCNC(=N)N)NC(=O)[C@H](C)NC(=O)[C@H](C)NC(=O)[C@H](CCC(=O)O)NC(=O)[C@H](CCCCNC(=O)CC[C@H](NC(=O)CCCCCCCCCCCCCCCCC(=O)O)C(=O)O)NC(=O)[C@H](CC(=O)O)NC(=O)[C@H](CC(C)C)NC(=O)[C@@H](NC(=O)[C@@H](NC(=O)[C@H](C)NC(=O)[C@H](CC(C)C)NC(=O)[C@H](CCC(=O)O)NC(=O)[C@H](CO)NC(=O)[C@H](CO)NC(=O)[C@H](Cc1ccccc1)NC(=O)[C@@H](NC(=O)CNC(=O)[C@H](CCC(=O)O)NC(=O)C(C)(C)NC(=O)[C@@H](N)Cc1c[nH]cn1)[C@@H](C)O)[C@@H](C)O)[C@@H](C)CC)C(=O)N[C@@H](C)C(=O)N[C@@H](Cc1c[nH]c2ccccc12)C(=O)N[C@@H](CC(C)C)C(=O)N[C@H](C(=O)N[C@@H](CCC(=O)O)C(=O)N[C@@H](Cc1c[nH]cn1)C(=O)N[C@@H](CCCCN)C(=O)N[C@H](C(=O)N[C@H](C(=O)N[C@@H](CC(=O)O)C(=O)O)[C@@H](C)O)[C@@H](C)CC)[C@@H](C)CC
B21: Compound 61 (peptide)
peptide: H-H[Aib]EGSFTSELATILEGK([AEEA-KEK-γGlu-C20 diacid])AARDFIAWLIEHKITD-OH
B22: Compound 56 (peptide)
peptide: H-H[Aib]EGTFTSELATILDK([AEEA-KEK-γGlu-C20 diacid])QAARDFIAWLIEHKITD-OH

Experiments:
[1] = target: human glucagon-like peptide 1 receptor (GLP-1R) (human, UniProt P43220); assay: cell-based or functional assay
[2] = target: T1, human GLP-2 receptor (hGLP2-R) (human, UniProt O95838); assay: cell-based or functional assay
T1 sequence: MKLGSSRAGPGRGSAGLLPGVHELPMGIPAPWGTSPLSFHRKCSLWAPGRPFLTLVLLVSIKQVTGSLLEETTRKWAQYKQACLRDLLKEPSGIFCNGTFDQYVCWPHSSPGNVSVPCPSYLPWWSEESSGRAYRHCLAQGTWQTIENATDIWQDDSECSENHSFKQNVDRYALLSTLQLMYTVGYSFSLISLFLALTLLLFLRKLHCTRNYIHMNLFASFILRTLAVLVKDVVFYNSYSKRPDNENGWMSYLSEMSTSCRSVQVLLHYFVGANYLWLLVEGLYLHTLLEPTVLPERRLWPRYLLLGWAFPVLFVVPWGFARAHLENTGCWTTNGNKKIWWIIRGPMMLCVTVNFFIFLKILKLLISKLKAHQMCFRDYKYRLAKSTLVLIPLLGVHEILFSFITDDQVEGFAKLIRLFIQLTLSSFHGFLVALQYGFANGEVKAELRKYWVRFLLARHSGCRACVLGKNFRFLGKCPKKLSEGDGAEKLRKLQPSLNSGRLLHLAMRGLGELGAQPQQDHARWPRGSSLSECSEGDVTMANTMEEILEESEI

Binder	EC50 GLP-1 (nM), cAMP AlphaScreen [1] [nM]	EC50 GLP-2 (nM), cAMP AlphaScreen [2] [nM]
B1	0.088	0.11
B2	0.44	0.048
B3	0.042	0.33
B4	0.11	0.78
B5	0.27	0.044
B6	0.13	0.25
B7	0.31	0.17
B8	0.076	0.24
B9	0.13	0.35
B10	0.089	0.09
B11	0.093	0.083
B12	0.47	0.054
B13	0.02	0.18
B14	0.097	0.074
B15	0.034	0.99
B16	0.31	0.056
B17	0.49	0.2
B18	0.27	0.15
B19	0.02	0.075
B20	0.63	0.35
B21	0.13	0.2
B22	0.033	0.076
